# B1: 25mer duplex ML25/MC25 (dsDNA)
# DNA 1: GAAAAAAGACTTAGAAAAATTTTTA
# DNA 2: TAAAAATTTTTCTAAGTCTTTTTTC
# How the values were obtained:
# [1] = biological target: C-terminal fragment of human topoisomerase I (HTOP14) (human) (UniProt P11387); test: pull-down
# [2] = biological target: C-terminal fragment of human topoisomerase I (HTOP14) (human) (UniProt P11387); test: fluorescence polarisation
# [3] = biological target: small subunit of L.donovani topoisomerase I (LdTOP1S) (Leishmania donovani); test: fluorescence polarisation
# [4] = biological target: LdTOP1L-fus-HTOP14 (Leishmania donovani / human chimera, UniProt A0A3Q8IHS4 1-635+=EF+P11387:636-765, internal_change); test: SDS trapping of covalent complex
Molecule,stoichiometry N [1],Kd [2] [nM],Kd [3] [nM],binding signal [4]
large subunit of L.donovani topoisomerase I (LdTOP1L) (natural protein),1,162,59.8,
B1,,,,~2 fold more covalent complex than LdTOP1L/S

# — article PMC1669778
